The values that follow come from patent US11806404B2, “Site specific homogeneous with KSP inhibitors” (BAYER PHARMA AKTIENGESELLSCHAFT, priority 2015, dated 2023).

Read-outs that look alike come from different tables or passages of the source.

One data set relates to NCI-H292. Kind of data set: MTT assay, cytotoxic effects of the ADCs. The format is cell-based. Particulars: Homo sapiens, metabolite. As for the experimental part: (§1) The analysis of the cytotoxic effects of the anti-TWEAKR-ADCs was carried out with various cell lines:
NCI-H292: human mucoepidermoid lung carcinoma cells, ATCC-CRL-1848, standard medium: RPMI 1640 (Biochrom; #FG1215, stab. glutamine)+10% FCS (Biochrom; #S0415), TWEAKR-positive, EGFR-positive.
(§2) The cells are cultivated by a standard method, as indicated in the […] (ATCC) for the respective cell lines.
(§3) The test was carried out by detaching the cells with a solution of Accutase in PBS (Biochrom AG #L2143), pelleting, resuspending in culture medium, counting and seeding the cells into a 96-well culture plate with white bottom (Costar #3610, LoVo:1000 cells/well, SK-HEP-1: 1200 cell/well, NCI H292: 1500 cell/well in a total volume of 100 μL). The cells were then incubated in an incubator at 37° C. and 5% carbon dioxide. After 48 h, the antibody drug conjugates were added in 10 μl of culture medium in concentrations of from 10^−5M to 10^−13M to the cells (triplicates) and incubated in an incubator at 37° C. and 5% carbon dioxide. After 96h, the proliferation was measured using the MTT assay (ATCC, Manassas, Va., USA, catalogue No. 30-1010K). […] The dye formed was detected at 570 nm (Infinite M1000 pro, Fa. Tecan). Based on the measured data the IC50 value was determined from the DRC (dose response curve). […]
(In general: Formazan colour is commonly taken as a measure of viable cells.)

A short description of data set [1]: Caco-2 flux assay for cell permeability. It counts as in vitro ADME. The following applies: human; Caco-2, 2 hours. As for the experimental part: The cell permeability of a substance can be investigated by means of in vitro testing in a flux assay using Caco-2 cells [M. D. Troutman and D. R. Thakker, Pharm. Res. 20 (8), 1210-1224 (2003)]. For this purpose, the cells were cultured for 15-16 days on 24-well filter plates. For the determination of permeation, the respective working example was applied in a HEPES buffer to the cells either apically (A) or basally (B) and incubated for 2 hours. After 0 hours and after 2 hours, samples were taken from the cis and trans compartments. The samples were separated by HPLC (Agilent 1200, Böblingen, Germany) using reverse phase columns. The HPLC system was coupled via a Turbo Ion Spray Interface to a Triple Quadropol mass spectrometer API 4000 (Applied Biosystems Applera, Darmstadt, Germany). The permeability was evaluated on the basis of a Papp value, which was calculated using the formula published by Schwab et al. [D. Schwab et al., J. Med. Chem. 46, 1716-1725 (2003)].
Of critical importance for toxophores which are released intracellularly is the permeability from B to A [Papp (B−A)] and the ratio of Papp (B−A) to Papp (A−B) (efflux ratio): the lower this permeability, the slower the active and passive transport processes of the substance through the monolayer of Caco-2 cells.
On the technique in general: Caco-2 cells form a polarised layer with tight junctions and transporters.

For a further data set, the system named is KPL4. Kind of data set: MTT assay, cytotoxic effects of the ADCs. It counts as cell-based. Particulars: Homo sapiens, metabolite, read-out: KPL-4 IC50 [M] MTT Assay. How it is done: as §1
KPL4: human breast carcinoma cells, standard medium: RPMI 1640+GlutaMAX I+10% FBS, cell bank, Bayer Pharma AG (identity checked and confirmed on 19 Jul. 2012 at DSMZ), Berlin, ERBB2-positive.
as §2, §3

The target of data set [2] is recombinant human TWEAKR protein (TPP-2305) (Homo sapiens (Human), UniProt Q9NP84). The data set can be described thus: Biacore surface plasmon resonance binding affinity. Particulars: for ka / kd: monovalent, 1:1 binding model. How it is done:
Binding affinities of anti-TWEAKR antibodies were examined using surface plasmon resonance analysis on a Biacore T100 instrument (GE Healthcare Biacore, Inc.). The antibodies were immobilized on a CMS sensor chip using an indirect capture reagent, anti-human IgG(Fc). Reagents of the “Human Antibody Capture Kit” (BR-1008-39, GE Healthcare Biacore, Inc.) were used as described by the manufacturer. Anti-TWEAKR antibodies were injected at a concentration of 10 μg/ml at 10 μl/min for 10 sec.
Sensorgrams were generated after in-line reference cell correction, followed by subtraction of the buffer sample. The dissociation constant (KD) was calculated based on the ratio of association (kon) and dissociation (koff) constants, obtained by fitting sensorgrams using a 1:1 first order binding model.
On the technique in general: SPR reads the build-up and loss of mass on a sensor chip optically.

Data set [3] addresses hTNFRSF12 amino acids a28-80-hIgG1-Fc (TPP-599) (Homo sapiens (Human), UniProt Q9NP84). The data set can be described thus: ELISA mutein binding (wild type). The following applies: coated 62 ng/ml, biotinylated IgG; read-out: Effect of muteins on antibody binding: WT. How it is done: (§4) To this end, the full-length ectodomain (amino acids 28-80) having the individual amino acid substitutions below were expressed and purified as Fc fusion proteins: T33Q; S40R; W42A; M50A; R56P; H60K; L65Q.
(§5) To obtain dose-reaction data, the different TWEAKR-Fc muteins were coated at a low concentration (62 ng/ml) onto a 384-well Maxisorb ELISA plate, and a serial 2-fold dilution of biotinylated IgG beginning with a concentration of 100 nM was used as a soluble binding partner. Detection was carried out using streptavidin-HRP and Amplex Red.
(§6) IgGs were biotinylated using an about 2-fold molar excess of biotin-LC-NHS (Pierce; Cat. No. 21347) according to the instructions of the manufacturer and desalted using Zeba desalting columns (Pierce; Cat. No. 89889). The dose-reaction data were fitted and the IC50s were determined.

The target of a further data set is TWEAKR (Homo sapiens (Human), UniProt Q9NP84). The following applies: literature values; read-out: published KD values; cited from earlier work.
Data set [4] has as its target hTNFRSF12 amino acids a28-80-H60K-hIgG1-Fc (TPP-1989) (Homo sapiens (Human), UniProt Q9NP84, H60K). The data set can be described thus: ELISA mutein binding. Particulars: mutein coated 62 ng/ml, biotinylated IgG; read-out: Effect of muteins on antibody binding: H60K. As for the experimental part:
as §4, §5, §6

Data set [5] concerns the target hTNFRSF12 amino acids a28-80-T33Q-hIgG1-Fc (TPP-1986) (Homo sapiens (Human), UniProt Q9NP84, T33Q). The data set can be described thus: ELISA mutein binding. The following applies: mutein coated 62 ng/ml, biotinylated IgG; read-out: Effect of muteins on antibody binding: T33Q. As for the experimental part:
as §4, §5, §6

Data set [6] addresses hTNFRSF12 amino acids a28-80-M50A-hIgG1-Fc (TPP-1988) (Homo sapiens (Human), UniProt Q9NP84, M50A). Kind of data set: ELISA mutein binding. Particulars: mutein coated 62 ng/ml, biotinylated IgG; read-out: Effect of muteins on antibody binding: M50A. How it is done: as §4, §5, §6
In data set [7] the target is hTNFRSF12 amino acids a28-80-L65Q-hIgG1-Fc (TPP-1990) (Homo sapiens (Human), UniProt Q9NP84, L65Q). Kind of data set: ELISA mutein binding. Particulars: mutein coated 62 ng/ml, biotinylated IgG; read-out: Effect of muteins on antibody binding: L65Q. How it is done:
as §4, §5, §6

Data set [8] concerns the target hTNFRSF12 amino acids a28-80-S40R-hIgG1-Fc (TPP-1987) (Homo sapiens (Human), UniProt Q9NP84, S40R). Kind of data set: ELISA mutein binding. The following applies: mutein coated 62 ng/ml, biotinylated IgG; read-out: Effect of muteins on antibody binding: S40R. As for the experimental part: as §4, §5, §6
In data set [9] the target is hTNFRSF12 amino acids a28-80-W42A-hIgG1-Fc (TPP-1985) (Homo sapiens (Human), UniProt Q9NP84, W42A). The data set can be described thus: ELISA mutein binding. Particulars: mutein coated 62 ng/ml, biotinylated IgG; read-out: Effect of muteins on antibody binding: W42A. As for the experimental part: as §4, §5, §6
The target in data set [10] is hTNFRSF12 amino acids a28-80-R56P-hIgG1-Fc (TPP-2683) (Homo sapiens (Human), UniProt Q9NP84, R56P). Kind of data set: ELISA mutein binding. Particulars: mutein coated 62 ng/ml, biotinylated IgG; read-out: Effect of muteins on antibody binding: R56P. As for the experimental part: as §4, §5, §6
The mark [11] stands for this setting: Biacore, read-out: KD (affinity to TWEAKR).

On to `CC(=O)N[C@@H](CCCCNC(=O)CC[C@H](N)C(=O)O)C(=O)NCCNC(=O)[C@@H](N)CCN(C(=O)CO)[C@@H](c1cc(-c2cc(F)ccc2F)cn1Cc1ccccc1)C(C)(C)C.O=C(O)C(F)(F)F` [Example M100, N^6-L-gamma-glutamyl-N^2-acetyl-N-[2-({(2S)-2-amino-4-[{(1R)-1-[1-benzyl-4-(2,5-difluorophenyl)-1H-pyrrol-2-yl]-2,2-dimethylpropyl}(glycoloyl)amino]butanoyl}amino)ethyl]-L-lysinamide trifluoro acetate (1:1)], for which the IC50 in the data set with NCI-H292 was more than 500 nM; with KPL4, more than 5e-07 M. The Papp B→A (as a rule, how fast a substance crosses the layer from the basolateral side) at 2 h in [1] is 0.12 ×10⁻⁶ cm/s.

B1: P2D3(TPP-2196): comparative anti-TWEAKR antibody; variable domains from patent literature "WO2009/020933 and WO2009/140177", constant region added, "resulting in full-length IgGs" (antibody)
heavy: QVSLKESGPGILQPSQTLSLTCSFSGFSLSTSGMGVSWIRQPSGKGLEWLAHIYWDDDKRYNPSLKSRLTISKDTSRNQVFLKITSVDTADTATYYCARRGPDYYGYYPMDYWGQGTSVTVSAKTTAPSVYPLAPVCGDTTGSSVTLGCLVKGYFPEPVTLTWNSGSLSSGVHTFPAVLQSDLYTLSSSVTVTSSTWPSQSITCNVAHPASSTKVDKKIEPRGPTIKPCPPCKCPAPNLLGGPSVFIFPPKIKDVLMISLSPIVTCVVVDVSEDDPDVQISWFVNNVEVHTAQTQTHREDYNSTLRVVSALPIQHQDWMSGKEFKCKVNNKDLPAPIERTISKPKGSVRAPQVYVLPPPEEEMTKKQVTLTCMVTDFMPEDIYVEWTNNGKTELNYKNTEPVLDSDGSYFMYSKLRVEKKNWVERNSYSCSVVHEGLHNHHTTKSFSRTPG
light: DIVLTQSPASLAVSLGQRATISCRASKSVSTSSYSYMHWYQQKPGQPPKLLIKYTSNLESGVPARFSGSGSGTDFILNIHPVEEEDAATYYCQHSRELPWTFGGGTKLEIKRADAAPTVSIFPPSSEQLTSGGASVVCFLNNFYPKDINVKWKIDGSERQNGVLNSWTDQDSKDSTYSMSSTLTLTKDEYERHNSYTCEATHKTSTSPIVKSFNRNEC
modifications: Mus Musculus
On to B1, for which the Kd (in general, the equilibrium constant for the complex coming apart) in data set [2] (setting [11]) is 0.7 to 3.7 nM. Also, the Kd in data set [2] (monovalent KD, read-out: KD) was found to be 0.4 nM. In [2], the “ka” value worked out at 1.32e+06 M⁻¹ s⁻¹ and the “kd” value worked out at 0.000564 s⁻¹.

B2: 18.3.3(TPP-2193): comparative anti-TWEAKR antibody; variable domains "obtained from the patent literature WO2009/020933", constant region added, "resulting in full-length IgGs" (antibody)
heavy: EVKLGESGGGLVQPGGSMKLSCVASGFPFTKYWMNWVRQSPEKGLEWVAEIRLKSDNYATHYAESAKGRFTISRDDSRSSVYLQMNNLRAEDTAIYYCSPTYADTMDYWGQGTSVTVSSAKTTAPSVYPLAPVCGDTTGSSVTLGCLVKGYFPEPVTLTWNSGSLSSGVHTFPAVLQSDLYTLSSSVTVTSSTWPSQSITCNVAHPASSTKVDKKIEPRGPTIKPCPPCKCPAPNLLGGPSVFIFPPKIKDVLMISLSPIVTCVVVDVSEDDPDVQISWFVNNVEVHTAQTQTHREDYNSTLRVVSALPIQHQDWMSGKEFKCKVNNKDLPAPIERTISKPKGSVRAPQVYVLPPPEEEMTKKQVTLTCMVTDFMPEDIYVEWTNNGKTELNYKNTEPVLDSDGSYFMYSKLRVEKKNWVERNSYSCSVVHEGLHNHHTTKSFSRTPG
light: DIVLTQSPASLAVSLGQRATISCKASQSVSTSTYSYMQWYQQRPGQSPKLLIKYASKLDSGVPARFSGSGSGTDFTLNIHPVEEEDTATYYCQHSWELPYTFGGGTRLEIKRADAAPTVSIFPPSSEQLTSGGASVVCFLNNFYPKDINVKWKIDGSERQNGVLNSWTDQDSKDSTYSMSSTLTLTKDEYERHNSYTCEATHKTSTSPIVKSFNRNEC
modifications: Mus Musculus
As to B2, the IC50 in [3], in data set [4], in data set [5], in data set [6], in data set [7] and in data set [8] was 0.001 to 0.15 nM in each case. Moreover, the IC50 in data set [9] and in data set [10] was more than 50 nM each time. The Kd in data set [2] (setting [11]) is 0.7 to 3.7 nM; with TWEAKR, 0.2 nM. The “ka” value in data set [2] was found to be 1.64e+07 M⁻¹ s⁻¹. In addition, the “kd” value in data set [2] was determined as 0.0285 s⁻¹.
